According to the RNAGym collection of RNA variant scans (doi:10.7554/elife.80360):

B1: CPEB3 Ribozyme (parent)
chain: GGGGGCCACAGCAGAAGCGUUCACGUCGCGGCCCCUGUCAGAUUCUGGUGAAUCUGCGAAUUCUGCUGU

Variants of: B1
Test: self-cleavage, relative activity (ratio to wild type); higher = more cleavage; co-transcriptional

| Variant | self-cleavage |
| --- | --- |
| C33G U44G | 0.333 |
| C34A | 0.869 |
| C33G G47A | 0.663 |
| C33G G47C | 0.638 |
| C33G G47U | 0.682 |
| C33G U64G | 0.395 |
| C33G U64C | 0.484 |
| C33G U64A | 0.638 |
| C32U U67A | 0.987 |
| C32U C63A | 0.886 |
| C32U C63U | 0.956 |
| C34A C66U | 0.874 |
| C34A C66G | 0.667 |
| C33G U61C | 0.341 |
| C33G U61G | 0.193 |
| C33G U61A | 0.317 |
| C32U U55A | 0.989 |
| C32U U55G | 0.896 |
| C33U A59U | 0.8 |
| C33U A59G | 0.959 |
| C33U A59C | 0.706 |
| C33A U62A | 0.566 |
| C33G C57U | 0.316 |
| C33G C57A | 0.38 |

| Variant | self-cleavage |
| --- | --- |
| C33G C57G | 0.259 |
| C33A C35G | 0.204 |
| C33A C35A | 0.151 |
| C33A C35U | 0.442 |
| C33U G50C | 1 |
| C33U G50A | 0.979 |
| C32U A60G | 0.906 |
| C33G C35G | 0.318 |
| C33G C35A | 0.304 |
| C33U A40G | 0.952 |
| C33U A40U | 0.906 |
| C33U A40C | 0.619 |
| C33A C45U | 0.799 |
| C33A A60G | 0.378 |
| C33A A60U | 0.38 |
| C32U U61G | 0.829 |
| C32U U61C | 0.856 |
| C32U U44A | 0.948 |
| C33G G37U | 0.245 |
| C33G G37A | 0.299 |
| C32U G68U | 1.02 |
| C32U G68A | 0.977 |
| C32U G68C | 1.02 |
| C33U U69G | 1.06 |

| Variant | self-cleavage |
| --- | --- |
| C33U U69A | 1.01 |
| C33U U69C | 1.05 |
| C32U U69G | 1.03 |
| C32U U69C | 1.06 |
| C32G U69C | 0.839 |
| C33U A42U | 0.953 |
| C33U A42G | 0.916 |
| C33U A42C | 0.793 |
| C34A G37U | 0.26 |
| C34A G37A | 0.301 |
| C33U U36G | 0.295 |
| C33U U36C | 0.874 |
| C33U C39A | 0.866 |
| C33A U38G | 0.212 |
| C32U G41A | 0.845 |
| C32G U61A | 0.292 |
| C33A C66A | 0.76 |
| C33A C66U | 0.901 |
| C33A C66G | 0.665 |
| C32U U43A | 0.933 |
| C32U U43C | 0.947 |
| C32U U43G | 0.963 |
| C33A G56C | 0.488 |
| C33A G56U | 0.756 |

| Variant | self-cleavage |
| --- | --- |
| C33G A40U | 0.273 |
| C33G A40C | 0.324 |
| C33U G65U | 0.749 |
| C33U A52C | 0.978 |
| C32U G50U | 0.978 |
| C32U G50A | 0.995 |
| C32U C54A | 0.861 |
| C32U C54U | 0.966 |
| C33U C34A | 0.413 |
| C33U C34U | 0.825 |
| C32U A52G | 0.967 |
| C32U A52U | 0.987 |
| C32G U38G | 0.207 |
| C32G U38A | 0.443 |
| C32G U38C | 0.235 |
| C33U A60U | 0.505 |
| C33U A60G | 0.814 |
| C33G G41U | 0.268 |
| C33G G50U | 0.578 |
| C33G G50A | 0.687 |
| C33G G50C | 0.661 |
| C33A G50C | 0.92 |
| C33A G50A | 0.938 |
| C33G U55A | 0.571 |

| Variant | self-cleavage |
| --- | --- |
| C33G U55G | 0.38 |
| C33U G68C | 1.02 |
| C33U C63G | 0.82 |
| C33U C63U | 0.936 |
| C33U C63A | 0.795 |
| C33U C66G | 0.921 |
| C32G G68C | 0.768 |
| C32G G68A | 0.808 |
| C33A C57G | 0.263 |
| C33A C57A | 0.345 |
| C33A U61A | 0.599 |
| C33A U61C | 0.45 |
| C33G A52C | 0.461 |
| C33G A52G | 0.663 |
| C32G U43G | 0.331 |
| C32G U43C | 0.364 |
| C32G U43A | 0.238 |
| C33G U67C | 0.777 |
| C33A G37U | 0.12 |
| C33A G37A | 0.26 |
| C32U G65C | 0.778 |
| C32U G65A | 0.988 |
| C32U C57G | 0.335 |
| C32U C57U | 0.327 |

| Variant | self-cleavage |
| --- | --- |
| C34A A40U | 0.468 |
| C34A A40G | 0.788 |
| C32U C33U | 0.861 |
| C32U C33A | 0.593 |
| C33U G48U | 1.03 |
| C33U G48C | 0.998 |
| C33U G48A | 1 |
| C33G G48A | 0.648 |
| C33G G48C | 0.629 |
| C33G G48U | 0.579 |
| C33U U43A | 0.915 |
| C33U U43G | 0.678 |
| C33G U53G | 0.32 |
| C33G U53A | 0.395 |
| C32U C66G | 0.923 |
| C32U C66A | 0.893 |
| C32U C66U | 1 |
| C33U U67A | 0.971 |
| C33U U67G | 0.982 |
| C34A C39U | 0.467 |
| C34A C39G | 0.538 |
| C33A U44C | 0.656 |
| C33A U44A | 0.313 |
| C33A U44G | 0.374 |

| Variant | self-cleavage |
| --- | --- |
| C32G U49A | 0.658 |
| C32G U49C | 0.543 |
| C33G A60U | 0.328 |
| C33G A60C | 0.415 |
| C33G A60G | 0.372 |
| C34A C45U | 0.798 |
| C34A C35U | 0.226 |
| C34A C35G | 0.177 |
| C33U C35U | 0.884 |
| C33U C35G | 0.396 |
| C32U A51C | 0.964 |
| C33A U64A | 0.847 |
| C33A U64G | 0.672 |
| C33A U64C | 0.798 |
| C32G U62C | 0.306 |
| C32G U62G | 0.271 |
| C32G U62A | 0.26 |
| C33G A51G | 0.739 |
| C33G A51U | 0.415 |
| C32G G48U | 0.562 |
| C33G U43G | 0.377 |
| C33G U38A | 0.582 |
| C34A G41A | 0.341 |
